Usually Km stands for the concentration of substrate that gives half-maximal velocity. What is called Vmax is the top rate of the reaction or transport when substrate is in excess.

Data set [1] concerns Nc1ccn([C@@H]2O[C@H](CO)[C@@H](O)C2(F)F)c(=O)n1. As to the kind of experiment: cells, lysate or membranes. It is filed as cell-based, Escherichia coli. The conditions noted are these: labelled compound, pH 6.5, 25 °C, glycerol-energized cells.
Data set [2] addresses T1, KpNupC2 (Klebsiella pneumoniae, UniProt A6T7A8).
T1 construct: gene nupC; full-length, C-terminal biotin-acceptor domain tag (pT7-5/-BAD), expressed in E. coli JW2389 (nupC knockout)
In words: inhibition of [3H]-gemcitabine uptake in E. coli JW2389. It is filed as cell-based. The source says: inhibition of [3H]-gemcitabine uptake in E. coli JW2389 on KpNupC2

In data set [3] the test system is Nc1ccn([C@@H]2O[C@H](CO)[C@@H](O)C2(F)F)c(=O)n1. In words: cells, lysate or membranes. As to conditions: labelled compound, pH 6.5, 25 °C, glycerol-energized cells. Type of data set: cell-based, Citrobacter freundii.
For data set [4] the test system is unchanged. As to the kind of experiment: cells, lysate or membranes. It is filed as cell-based, Klebsiella pneumoniae. The conditions noted are these: labelled compound, pH 6.5, 25 °C, glycerol-energized cells.
Data set [5] has the same test system. As to the kind of experiment: cells, lysate or membranes. As to conditions: labelled compound, pH 6.5, 25 °C, glycerol-energized cells.
Data set [6] has as its target T2, NupG (Escherichia coli, UniProt P0AFF4).
T2 construct: full-length, C-terminal biotin-acceptor domain tag (pT7-5/-BAD), expressed in E. coli JW2389 (nupC knockout)
T2 sequence (P0AFF4 1-418): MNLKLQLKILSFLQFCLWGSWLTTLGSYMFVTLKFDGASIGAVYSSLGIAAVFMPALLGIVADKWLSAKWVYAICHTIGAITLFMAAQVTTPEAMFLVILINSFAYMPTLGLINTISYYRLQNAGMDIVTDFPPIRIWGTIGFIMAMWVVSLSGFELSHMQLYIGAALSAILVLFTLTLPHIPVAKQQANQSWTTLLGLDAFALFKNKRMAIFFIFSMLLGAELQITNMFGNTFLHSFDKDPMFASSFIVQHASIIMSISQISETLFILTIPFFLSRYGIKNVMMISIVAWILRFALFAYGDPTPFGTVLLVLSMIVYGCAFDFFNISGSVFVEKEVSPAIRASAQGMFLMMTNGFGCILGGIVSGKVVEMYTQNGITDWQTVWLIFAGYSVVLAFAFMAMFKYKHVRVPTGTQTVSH
As to the kind of experiment: inhibition of [3H]-gemcitabine uptake in E. coli JW2389. It is filed as cell-based. An excerpt:
inhibition of [3H]-gemcitabine uptake in E. coli JW2389 on NupG

The target of data set [7] is T3, KpNupG (Klebsiella pneumoniae, UniProt A6TDX2).
T3 construct: gene nupG; full-length, C-terminal biotin-acceptor domain tag (pT7-5/-BAD), expressed in E. coli JW2389 (nupC knockout)
T3 sequence (A6TDX2 1-417): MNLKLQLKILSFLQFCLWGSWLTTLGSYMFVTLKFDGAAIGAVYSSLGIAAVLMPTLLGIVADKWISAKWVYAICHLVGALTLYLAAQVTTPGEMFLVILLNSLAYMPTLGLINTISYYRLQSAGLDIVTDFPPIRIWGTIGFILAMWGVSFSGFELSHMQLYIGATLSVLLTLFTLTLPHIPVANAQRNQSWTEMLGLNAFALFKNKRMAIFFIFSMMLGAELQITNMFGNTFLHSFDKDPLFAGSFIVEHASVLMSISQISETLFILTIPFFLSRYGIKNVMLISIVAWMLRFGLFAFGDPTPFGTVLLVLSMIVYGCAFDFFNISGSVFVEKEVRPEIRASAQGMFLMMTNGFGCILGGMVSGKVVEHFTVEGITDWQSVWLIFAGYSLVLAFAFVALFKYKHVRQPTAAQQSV
Described as above. Type of data set: cell-based. The source says:
inhibition of [3H]-gemcitabine uptake in E. coli JW2389 on KpNupG

Data set [8] deals with T4, CfNupG (Citrobacter freundii, UniProt A0A0D7LJ63).
T4 construct: gene nupG; full-length, C-terminal biotin-acceptor domain tag (pT7-5/-BAD), expressed in E. coli JW2389 (nupC knockout)
T4 sequence (A0A0D7LJ63 1-418): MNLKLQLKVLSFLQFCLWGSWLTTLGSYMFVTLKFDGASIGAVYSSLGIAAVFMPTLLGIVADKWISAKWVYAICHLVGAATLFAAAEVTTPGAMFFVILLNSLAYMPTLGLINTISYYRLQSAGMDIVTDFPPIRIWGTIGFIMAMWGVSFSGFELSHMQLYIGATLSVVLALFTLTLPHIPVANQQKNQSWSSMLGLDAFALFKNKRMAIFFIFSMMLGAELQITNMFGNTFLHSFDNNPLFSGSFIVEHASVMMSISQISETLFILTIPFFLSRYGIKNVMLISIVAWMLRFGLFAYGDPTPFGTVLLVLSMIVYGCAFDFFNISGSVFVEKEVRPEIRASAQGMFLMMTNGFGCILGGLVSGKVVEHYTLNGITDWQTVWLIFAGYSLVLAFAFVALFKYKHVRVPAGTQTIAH
The description is as above. Type of data set: cell-based. As to conditions: read-out: Inhibition by Other Nucleosides / Ki (μM) (Cytidine). An excerpt:
inhibition of [3H]-gemcitabine uptake in E. coli JW2389 on CfNupG

Data set [9] concerns the target T5, KpNupC (Klebsiella pneumoniae, UniProt A0A0H3H172).
T5 construct: gene KPHS_38160; full-length, C-terminal biotin-acceptor domain tag (pT7-5/-BAD), expressed in E. coli JW2389 (nupC knockout)
The description is as above. It is filed as cell-based. The source says: inhibition of [3H]-gemcitabine uptake in E. coli JW2389 on KpNupC

Data set [10] deals with T6, CfNupC (Citrobacter freundii, UniProt A0A0D7LF62).
T6 construct: gene nupC; full-length, C-terminal biotin-acceptor domain tag (pT7-5/-BAD), expressed in E. coli JW2389 (nupC knockout)
T6 sequence (A0A0D7LF62 entry or part of it): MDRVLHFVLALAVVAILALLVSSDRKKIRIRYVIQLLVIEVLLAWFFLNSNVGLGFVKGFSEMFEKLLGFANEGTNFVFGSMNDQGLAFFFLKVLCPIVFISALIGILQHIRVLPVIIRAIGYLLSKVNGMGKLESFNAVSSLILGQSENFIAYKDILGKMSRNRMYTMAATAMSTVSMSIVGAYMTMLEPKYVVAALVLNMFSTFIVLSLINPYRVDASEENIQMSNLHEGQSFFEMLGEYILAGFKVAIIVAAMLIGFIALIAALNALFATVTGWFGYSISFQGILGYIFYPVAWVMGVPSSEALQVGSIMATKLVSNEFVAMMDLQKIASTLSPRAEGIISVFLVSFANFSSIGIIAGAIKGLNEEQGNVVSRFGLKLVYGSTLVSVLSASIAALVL
The description is as above. Type of data set: cell-based. As to conditions: read-out: Inhibition by Other Nucleosides / Ki (μM) (Cytidine). The source says: inhibition of [3H]-gemcitabine uptake in E. coli JW2389 on CfNupC

Data set [11] deals with T7, NupC (Escherichia coli, UniProt P0AFF2).
T7 construct: full-length, C-terminal biotin-acceptor domain tag (pT7-5/-BAD), expressed in E. coli JW2389 (nupC knockout)
T7 sequence (P0AFF2 1-400): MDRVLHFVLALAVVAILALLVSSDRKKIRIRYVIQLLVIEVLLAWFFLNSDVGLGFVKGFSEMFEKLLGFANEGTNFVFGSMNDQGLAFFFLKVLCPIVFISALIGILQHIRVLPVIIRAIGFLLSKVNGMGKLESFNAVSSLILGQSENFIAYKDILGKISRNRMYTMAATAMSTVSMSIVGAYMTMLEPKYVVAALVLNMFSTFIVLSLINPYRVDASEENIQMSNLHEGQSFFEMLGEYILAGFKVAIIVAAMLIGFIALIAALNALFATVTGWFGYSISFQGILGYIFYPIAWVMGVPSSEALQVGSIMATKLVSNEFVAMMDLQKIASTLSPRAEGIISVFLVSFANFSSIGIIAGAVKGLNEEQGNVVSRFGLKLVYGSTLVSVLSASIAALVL
The data set is described as above. It is filed as cell-based. As to conditions: read-out: Inhibition by Other Nucleosides / Ki (μM) (Adenosine). The source says: inhibition of [3H]-gemcitabine uptake in E. coli JW2389 on NupC

Substrate in data set [12]: Nc1ccn([C@@H]2O[C@H](CO)[C@@H](O)C2(F)F)c(=O)n1
As to the kind of experiment: cells, lysate or membranes. The conditions noted are these: labelled compound, pH 6.5, 25 °C, glycerol-energized cells. The source holds these as a separate data set.

Setting [13] is: read-out: Inhibition by Other Nucleosides / Ki (μM) (Cytidine).

Where two headings read alike, the source gives them in different places.

T1 sequence (A6T7A8 entry or part of it): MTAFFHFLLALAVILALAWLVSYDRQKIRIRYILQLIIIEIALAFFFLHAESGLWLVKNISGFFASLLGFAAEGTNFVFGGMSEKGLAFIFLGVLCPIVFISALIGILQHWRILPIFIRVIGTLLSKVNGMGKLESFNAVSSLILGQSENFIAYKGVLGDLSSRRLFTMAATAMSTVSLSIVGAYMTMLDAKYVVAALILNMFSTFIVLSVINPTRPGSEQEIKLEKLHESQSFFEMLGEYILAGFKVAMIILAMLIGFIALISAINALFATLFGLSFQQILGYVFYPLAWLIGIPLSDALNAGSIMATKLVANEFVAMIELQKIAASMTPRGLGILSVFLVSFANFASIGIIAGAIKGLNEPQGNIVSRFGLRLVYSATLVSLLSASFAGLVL
T5 sequence (A0A0H3H172 entry or part of it): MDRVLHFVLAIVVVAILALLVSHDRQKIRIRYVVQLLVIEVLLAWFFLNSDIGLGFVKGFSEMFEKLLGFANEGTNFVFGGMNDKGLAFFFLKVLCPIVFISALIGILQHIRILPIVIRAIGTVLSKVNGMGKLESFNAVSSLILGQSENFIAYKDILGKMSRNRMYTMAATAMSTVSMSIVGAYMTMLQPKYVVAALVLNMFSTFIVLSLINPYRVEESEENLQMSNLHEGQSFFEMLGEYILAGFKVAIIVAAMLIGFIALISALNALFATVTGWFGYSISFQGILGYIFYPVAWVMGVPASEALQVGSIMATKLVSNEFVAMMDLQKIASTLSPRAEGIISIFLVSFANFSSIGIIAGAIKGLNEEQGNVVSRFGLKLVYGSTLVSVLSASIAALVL

On to NupC (Escherichia coli K-12), for which, in data set [1], the Km was 9.8 ± 1.0 µM, the Vmax is 0.0994 µmol/min/mg and the Vmax/Km amounted to 10100 µL/min/mg.

With `O=c1ccn([C@@H]2O[C@H](CO)[C@@H](O)[C@H]2O)c(=O)[nH]1` [uridine], in [2], the Ki was found to be 6.1 ± 1 µM.

For CfNupG (Citrobacter freundii), in data set [3], the Km came to 2.7 ± 0.3 µM, the Vmax was 0.0474 µmol/min/mg and the Vmax/Km is 17200 µL/min/mg.

Take “KpNupC2 (Klebsiella pneumoniae subsp. pneumoniae MGH 78578)”: in data set [4], the Km came out at 11.6 ± 3.2 µM, the Vmax was 0.0873 µmol/min/mg and the Vmax/Km was determined as 7500 µL/min/mg.

On to “KpNupC (Klebsiella pneumoniae subsp. pneumoniae HS11286)”, for which, in data set [5], the Km worked out at 10.9 ± 2.0 µM, the Vmax came to 0.0928 µmol/min/mg and the Vmax/Km is 8600 µL/min/mg.

For `Nc1nc2c(ncn2[C@@H]2O[C@H](CO)[C@@H](O)[C@H]2O)c(=O)[nH]1` [guanosine], the figures for the Ki in [6] and in [7] (read-out: Inhibition by Other Nucleosides / Ki (μM) (Guanosine)) were 15.3 ± 5.8 µM and 18.3 ± 4.5 µM, respectively.

Take CfNupC (Citrobacter freundii): in [3], the Km stood at 12.8 ± 1.3 µM, the Vmax worked out at 0.102 µmol/min/mg and the Vmax/Km worked out at 7800 µL/min/mg.

Take `Nc1ccn([C@@H]2O[C@H](CO)[C@@H](O)[C@H]2O)c(=O)n1` [cytidine]: the Ki was 6.5 ± 1 µM in data set [2] (setting [13]); 20.2 ± 3.8 µM in data set [8]; 18.1 ± 4 µM in data set [7] (setting [13]); 6.7 ± 1.3 µM in data set [9] (setting [13]); 7.2 ± 1.4 µM in data set [10].

As to `Nc1ncnc2c1ncn2[C@@H]1O[C@H](CO)[C@@H](O)[C@H]1O` [adenosine], the values for the Ki in [9] (read-out: Inhibition by Other Nucleosides / Ki (μM) (Adenosine)) and in data set [11] were 7.7 ± 0.8 µM and 5.4 ± 1.4 µM, respectively.

B1: NupG (Escherichia coli K-12) (protein)
chain: T2 sequence (P0AFF4 1-418)
Regarding B1, in [12], the Km was determined as 2.8 ± 0.4 µM, the Vmax is 0.0461 µmol/min/mg and the Vmax/Km was 16600 µL/min/mg.

B2: KpNupG (Klebsiella pneumoniae subsp. pneumoniae MGH 78578) (protein)
chain: T3 sequence (A6TDX2 1-417)
Take B2: in data set [12], the Km was 2.8 ± 0.3 µM, the Vmax is 0.0456 µmol/min/mg and the Vmax/Km worked out at 17100 µL/min/mg.

The record behind these values is PMC11241209, “Elucidation of the Gemcitabine Transporters of Escherichia coli K-12 and Gamma-Proteobacteria Linked to Gemcitabine-Related Chemoresistance” (International Journal of Molecular Sciences, 2024).
